Assay results: patent US20070225240A1, “Screening Assay and Treatment” (priority 2003, published 2007)
Like-named read-outs stand apart in the source and are kept apart here. Blank lines part the entries; values can stand above or below the molecule they belong to.

What was measured:
[1] = target: full length ASPP2, V5-tagged (transfected) (Homo sapiens (Human)) (UniProt Q13625); test: cell-based or functional assay
[2] = target: T1, full length ASPP1, V5-tagged (transfected) (Homo sapiens (Human)) (UniProt Q96KQ4); test: cell-based or functional assay
T1 sequence: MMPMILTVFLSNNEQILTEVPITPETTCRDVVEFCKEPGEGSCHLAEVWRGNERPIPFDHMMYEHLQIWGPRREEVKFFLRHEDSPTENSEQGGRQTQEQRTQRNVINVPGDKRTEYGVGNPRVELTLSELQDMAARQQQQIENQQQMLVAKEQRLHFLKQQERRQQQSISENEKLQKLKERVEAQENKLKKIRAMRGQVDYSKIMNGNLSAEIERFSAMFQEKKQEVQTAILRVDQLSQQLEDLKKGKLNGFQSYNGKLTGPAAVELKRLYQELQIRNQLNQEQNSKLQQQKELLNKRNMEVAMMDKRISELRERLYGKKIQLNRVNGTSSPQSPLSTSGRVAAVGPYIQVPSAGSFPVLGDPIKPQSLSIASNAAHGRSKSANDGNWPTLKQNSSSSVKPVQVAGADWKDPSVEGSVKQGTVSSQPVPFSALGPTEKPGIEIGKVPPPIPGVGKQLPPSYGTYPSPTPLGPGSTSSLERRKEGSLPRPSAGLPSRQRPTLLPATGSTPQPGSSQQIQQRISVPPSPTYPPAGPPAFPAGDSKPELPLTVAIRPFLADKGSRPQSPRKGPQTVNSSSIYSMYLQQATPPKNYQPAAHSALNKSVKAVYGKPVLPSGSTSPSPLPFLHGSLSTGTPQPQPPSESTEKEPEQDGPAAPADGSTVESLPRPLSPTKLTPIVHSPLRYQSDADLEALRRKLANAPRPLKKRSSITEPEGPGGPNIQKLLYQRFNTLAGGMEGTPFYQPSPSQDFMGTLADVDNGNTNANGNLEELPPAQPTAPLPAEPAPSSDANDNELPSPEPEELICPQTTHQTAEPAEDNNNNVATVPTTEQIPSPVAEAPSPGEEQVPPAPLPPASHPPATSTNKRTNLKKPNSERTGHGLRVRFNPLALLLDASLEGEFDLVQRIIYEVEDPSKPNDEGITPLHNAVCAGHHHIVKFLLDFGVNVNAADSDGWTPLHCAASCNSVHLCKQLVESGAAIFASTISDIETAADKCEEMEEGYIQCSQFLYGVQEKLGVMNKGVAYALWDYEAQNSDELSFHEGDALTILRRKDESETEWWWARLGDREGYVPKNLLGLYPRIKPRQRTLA

[3] = system: T2, GST-ASPP2 (693-1128), non-phosphorylated
T2 sequence: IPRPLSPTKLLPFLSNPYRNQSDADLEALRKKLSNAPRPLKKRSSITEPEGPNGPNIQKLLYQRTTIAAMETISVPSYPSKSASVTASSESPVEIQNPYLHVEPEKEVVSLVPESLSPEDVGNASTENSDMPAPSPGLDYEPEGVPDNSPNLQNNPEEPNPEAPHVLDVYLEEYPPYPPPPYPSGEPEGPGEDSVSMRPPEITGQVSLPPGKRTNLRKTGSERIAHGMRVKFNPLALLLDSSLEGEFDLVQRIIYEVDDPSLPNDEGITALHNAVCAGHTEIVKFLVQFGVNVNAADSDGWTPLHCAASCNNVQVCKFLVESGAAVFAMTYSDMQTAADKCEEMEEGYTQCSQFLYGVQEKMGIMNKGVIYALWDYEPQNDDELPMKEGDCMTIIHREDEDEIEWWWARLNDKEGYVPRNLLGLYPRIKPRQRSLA

[4] = target: full length ASPP2, V5-tagged (transfected) (Homo sapiens (Human)) (UniProt Q13625); test: cell-based or functional assay; remark: listed apart in the source
[5] = target: purified recombinant Ras loaded with GTP; test: in vitro immunoprecipitation of purified proteins with V5 antibody, intensity of the ras bands (FIG. 14C-D)
[6] = target: purified recombinant Ras loaded with GTP; test: in vitro immunoprecipitation with V5 antibody, intensity of the Ras bands (FIG. 23B)
[7] = system: Ras; test: In vitro immunoprecipitation of GDP/GTP-loaded Ras with ASPP1 fragment; format: binding; details: purified recombinant proteins, V5 immunoprecipitation, band intensity
Description: FIG. 14 illustrates that purified N-term ASPP1 binds directly in a preferential manner to Ras.GTP. A. Purified ras was loaded with tritium labelled -GDP, -GTP or not loaded as a control. The cpm counts of the tritium are shown. The differences in cpm is due to the fact that GDP and GTP were not tritium-labelled at the same level. B. Relative loading of ras-GDP and ras-GTP, showing the mol of nucleotide bound to ras. Both ras-GDP and ras-GTP were loaded with an equal amount of nucleotide. C. Loaded ras-GDP and ras-GTP with or without purified N-terminus ASPP1 was immunoprecipitated with a V5 antibody against the ASPP1 fragment. The immunoprecipitations were western blotted against ras to see whether there was direct and preferential binding of ras-GDP and ras-GTP to the amino-terminus of ASPP1. D. The intensity of the ras-GDP and ras-GTP bands pulled down by N-term ASPP1 were measured and shown as a graph. N-terminus ASPP1 binds ras-GTP four fold more strongly than it does to ras-GDP;
FIG. 23. Amino-terminus ASPP1 and ASPP2 preferentially bind activated Ras in vitro and in vivo. (A) Sequence homology between the amino-termini of ASPP1 and ASPP2 and the Ras-association domains (RAD) of RGL2 and AF-6. (B) The Ras protein loaded with either tritium-labelled GDP or GTP, was added to V5-tagged recombinant ASPP1 fragment (1-308) and immunoprecipitated with V5 antibody. As a negative control Ras-GDP and Ras-GTP were immunoprecipitated with V5 antibody in the absence of the ASPP1 fragment. The ASPP1 fragment preferentially bound Ras-GTP to Ras-GDP. The intensity of the bands representing immunoprecipitated Ras was quantified and the values shown as a bar graph in the right panel. […] The ASPP proteins were detected with mAbASPP1.54.1 that is known to cross-react with both ASPP1 and ASPP2. […]
2.5 μg of recombinant protein purified from Escherichia coli was incubated in a total volume of 320 μl assay buffer containing 2 μCi [3H] […] An aliquot of each sample had its tritium content measured to check the equal loading of GDP and GTP. […]

Molecule: recombinant MAPK1
in vitro phosphorylation (P32 incorporation) [3]: MAPK1, PKA, p38SAPK and p90rsk were all found to be able to phosphorylate ASPP2
in vitro phosphorylation assay with 32P-labelled ATP [3]: When compared to p38 SAPK, MAPK1 was clearly able to phosphorylate the ASPP2 fragment in vitro

Molecule: PKA
in vitro phosphorylation (P32 incorporation) [3]: MAPK1, PKA, p38SAPK and p90rsk were all found to be able to phosphorylate ASPP2

Molecule: p90rsk
in vitro phosphorylation (P32 incorporation) [3]: MAPK1, PKA, p38SAPK and p90rsk were all found to be able to phosphorylate ASPP2

Molecule: p38SAPK
in vitro phosphorylation (P32 incorporation) [3]: MAPK1, PKA, p38SAPK and p90rsk were all found to be able to phosphorylate ASPP2

B1: V5-tagged recombinant ASPP1 fragment (1-308) (protein, not shown: small tags and cut ends)
chain: MMPMILTVFLSNNEQILTEVPITPETTCRDVVEFCKEPGEGSCHLAEVWRGNERPIPFDHMMYEHLQIWGPRREEVKFFLRHEDSPTENSEQGGRQTQEQRTQRNVINVPGDKRTEYGVGNPRVELTLSELQDMAARQQQQIENQQQMLVAKEQRLHFLKQQERRQQQSISENEKLQKLKERVEAQENKLKKIRAMRGQVDYSKIMNGNLSAEIERFSAMFQEKKQEVQTAILRVDQLSQQLEDLKKGKLNGFQSYNGKLTGPAAVELKRLYQELQIRNQLNQEQNSKLQQQKELLNKRNMEVAMMDK
fold binding to ras-GTP over ras-GDP [5]: 4 fold
fold affinity for Ras-GTP over Ras-GDP [6]: 4 fold

Next, values leading:

transactivation function of p53 (bax-luciferase reporter, Saos2 cells) [1]: 2.5 fold
transactivation function of p53 (bax-luciferase reporter, Saos2 cells) [2]: 2.5 fold
Molecule: oncogenic K-RasV12, haemagglutinin-tagged (from UniProt P79800 1-185)

transactivation function of p53 (bax-luciferase reporter, Saos2 cells) [4]: 3 fold
transactivation function of p53 (bax-luciferase reporter, Saos2 cells) [1]: 2.5 fold
transactivation function of p53 (bax-luciferase reporter, Saos2 cells) [2]: 2.5 fold
Molecule: oncogenic H-RasV12, haemagglutinin-tagged (from UniProt P01112 1-186)

binding of Ras-GTP relative to Ras-GDP [7]: 4 fold
binding of Ras-GTP relative to Ras-GDP ([7]; listed as N-terminus ASPP1): four fold
binding of Ras-GTP relative to Ras-GDP ([7]; listed as N-terminus of ASPP1): four-fold
B2: ASPP1 fragment (1-308): V5-tagged recombinant ASPP1 fragment (1-308) containing the Ras-association domain (protein)
chain: B1 chain
modifications: left off: small tags and cut ends
notes: V5-tagged recombinant ASPP1 fragment (1-308) containing the Ras-association domain
